pKd: −log10 of the molar value.
What was measured:
[1] = biological target: ICAM-1^D1D5-Fc (UniProt P05362); test: SPR; ICAM-1^D1D5-Fc immobilized to 850 RU on a CM5 chip precoupled with Protein A; IT4var13 DBLβ proteins 0.9 nM to 250 nM injected at 30 µL/min, 240 s association, 600 s dissociation; 20 mM Hepes, 300 mM NaCl, 0.005% Tween 20, pH 7.2; Biacore T200; global fit to a 2-state reaction model
[2] = biological target: ICAM-1^D1D5-Fc (UniProt P05362); test: SPR; details: for response: top curve of the dilution series (500 nM), read at end of injection (~300 s), parent: est. 240, read off a plot

Chain of ICAM-1^D1D5-Fc (P05362 28-480): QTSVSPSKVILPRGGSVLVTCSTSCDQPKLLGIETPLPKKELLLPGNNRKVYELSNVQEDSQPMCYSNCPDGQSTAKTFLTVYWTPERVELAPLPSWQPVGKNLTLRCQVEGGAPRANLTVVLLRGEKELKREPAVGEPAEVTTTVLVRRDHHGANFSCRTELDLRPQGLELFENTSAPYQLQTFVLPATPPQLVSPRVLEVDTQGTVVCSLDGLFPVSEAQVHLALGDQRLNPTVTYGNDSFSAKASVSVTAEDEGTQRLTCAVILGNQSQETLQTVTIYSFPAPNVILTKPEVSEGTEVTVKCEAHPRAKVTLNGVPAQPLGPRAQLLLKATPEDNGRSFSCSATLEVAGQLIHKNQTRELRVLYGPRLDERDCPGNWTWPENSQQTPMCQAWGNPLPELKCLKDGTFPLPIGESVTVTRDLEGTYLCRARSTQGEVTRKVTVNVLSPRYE

Substance | response [2] | other results
IT4var13 DBLβ Q1103A (domain or fragment) | – | fold decrease in affinity against wild type [1]: 200 fold
IT4var13 DBLβ domain (wild type) (domain or fragment) | – | pKd [2]: 8.91
J1a DBLβ domain (wild type) G1117A | 35 RU | –
J1a DBLβ domain (wild type) L1093D | 260 RU | –
J1a DBLβ domain (wild type) L1096D | 140 RU | –
J1a DBLβ domain (wild type) Y1097A | 25 RU | –
